Laboratory results published in the supplement of paper PMC12042874.
± gives the uncertainty stated by the source.

Experiment: amyloid nucleation score (Sup35N fusion, yeast selection) (log enrichment); library NNK3; higher = more nucleation; inactive = no reads after selection
Summary of the method: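 Using DiMSum, nucleation scores were taken as the log enrichment of output over input reads, centred on the mode score of non-aggregating sequences. The input and output reads came from Illumina sequencing of plasmid inserts, with sequences under 100 input reads excluded. The yeast were psi-negative, expressed Sup35N fused to peptides of 20 random codons, were induced with 100 μM copper sulfate for 24 hours, and were grown 7 days at 30°C on medium lacking adenine and uracil.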

Substance | amyloid nucleation score
IVGLDWKNATVRDCRRNFIN | inactive
RDLKFGWGWMGRTEISWYLF | inactive
YSVIYDRSYRIV | inactive
RNKLFLINWLFYNCMTWAFH | inactive
DAHNRASLSYVPSYYVSFTA | inactive
AMIFAICCLNNQESVGVRRT | 2.49 ± 0.071
ACRYDLSKKPNASWARAEG | -0.272 ± 0.37
IGRMKRSIGRCDPVWWNWVQ | inactive
QKESYHY | inactive
CATIILSCILSL | 1.14 ± 0.13
VMSSCKIRCNDTRTPAAHIC | inactive
YLLDLTTVCAGPWRIPQLMK | inactive
PVGRKLTTFRVNTCLLGYFK | inactive
WYFWVFCSFKLENCAPVNQW | inactive
DSHFKVYVPRQLREAREPVK | inactive
LGLDTSSSVYCQSCGVRFSV | inactive
ISMSNHWLLLVICNDEWDLP | -0.06 ± 0.7
FACRVGGEHGGV | inactive
RSVVLIPDLFGNL | inactive
HSRYLMQLYVNSFSRFD | 1.28 ± 0.12
PFCVGIQFDSEKPLVYFNLL | inactive
LLNWSYIKRLFLVGIKSGHR | inactive
PEEDRFLTQSPMLRFIITHM | inactive
RFVTSLYDMLSI | inactive

Substance | amyloid nucleation score
GAFMLEGAIRRFS | inactive
DYVAGN | inactive
ILENVA | inactive
KAPNPI | inactive
PTTKYFLYNIYSFV | 2.02 ± 0.079
FSSRKSLCGLDLKECFTSVE | inactive
MRLADLGMLGARTDQDRLPT | inactive
HDYYLLLLTATL | inactive
EEGATVRTPLATRPGRTLK | inactive
LNFGEFILMAGDLLTLMCVF | 1.42 ± 0.12
LTLSMKFTWYFYVSIYSGQG | inactive
STIVGGSLCFPIASVTFNSC | 2.2 ± 0.079
GTLCVGPLKASCETGKLKFF | inactive
SCVRHPIECLKWMTLTGEVV | inactive
QHSFVNSIFSSLGTLRKNLL | inactive
RKYGTLCKGCVL | inactive
FWAYERVGSRSAFGWLGREA | 0.705 ± 0.21
HVTSVMIFIIASIMYVEIKY | 0.339 ± 0.34
SIGISEPLIIYLFNWQLLYW | inactive
FLAMSSASMFRYFKPVASSE | 2.91 ± 0.066
FMEYFTCGV | inactive
YCLKLLGGFC | 0.657 ± 0.27
ASMLLDKYFANLYELVLRVF | inactive
VLWAFNLMLVDWRIRFQNWA | inactive

Substance | amyloid nucleation score
KFARV | inactive
VRNNVCRPVCYGWNGGYITV | inactive
VCSVVARWFVESFCCISWMC | inactive
LLGYASMASSFIYIQHNVLE | inactive
PVDKRTSTAVDRFARAMNCQ | inactive
SSSSNANGFNRHYLSVRFGE | inactive
CPRDNVSIVKWWLAYRDSHA | inactive
KVWCKMLISSFIWMYVSE | inactive
YNRYV | inactive
LMTNRVVL | inactive
YLYFV | inactive
TFVKSLVGGFTRNLVFLAIL | inactive
AGWGLLQSCRRFWEWCG | inactive
FEMPLMWYCGGFYSSPLLCK | inactive
VVGFMYYARFLPSDFVSINA | inactive
AITGFNRKVDYLGSGECVEH | inactive
DSMCRYV | 0.893 ± 0.12
SVGLDRTSQEHSAYVGNVHS | inactive
TYPVGPGGFFWDLGCV | inactive
VSIRAVRYKVLGLFWSSTHV | inactive
MNRNLLFASTLTFNFVLFVW | inactive
KQVNSCDFLMWMLLALHFKG | inactive
QNVGIVYRTST | -0.928 ± 2.5
DICEIRTTIRAC | inactive

Substance | amyloid nucleation score
FLWLKHSQSHVRERL | inactive
FSLVAKMSFESLATNRWDSR | 1.41 ± 0.15
STMLSYAVWALDMVFSYKVY | -0.509 ± 0.84
NYSSAQEYKVSQERIS | inactive
IVALQRSFSNNT | inactive
NLFVNL | 1.13 ± 0.15
FSYRPSNCYIR | inactive
NRVPQWRRRQVGGD | inactive
GIFSRPFRAGRGRVIHNGPD | inactive
ANKWESGSNALLDISVLMFW | inactive
FIIAWWCNVSVDKTSERHYV | 1.55 ± 0.079
SYLIGIWGFWINGIVFAVCA | inactive
FKVSFIWCCNFKMSCGAYER | 0.446 ± 0.4
SSGSFS | inactive
HPHTHVR | inactive
YWKFWIKSDVYCRSISGWCR | inactive
LFEVSS | inactive
SGLSNRGCCIMSY | inactive
TYKHTSWETLDDVFSDGSSS | inactive
WKRNKRGKV | 1.4 ± 0.11
CVEAEDNFVLLKEGHAAWDV | inactive
SIFLMSFRA | 1.41 ± 0.1
SLPYCGVTSLSHSWVPMAIR | inactive
VVFCEYSTCAVRSL | -0.219 ± 0.89

Substance | amyloid nucleation score
YMMGKISSPGNLMTMFAVDG | inactive
CFYLDQSRFRSA | inactive
MFFWMCE | inactive
HECKYFGVCGRSQGNRSWVA | inactive
TTFIN | inactive
SILYMVIASWYLY | inactive
VRKKCLDPDGFLSRLGPAFD | -0.429 ± 0.91
LLERDYR | inactive
CRIYCLLPISMIGSCSFIVH | inactive
WSDQTDRAGHFAVFNLSMGY | inactive
ANELERYYVMCFW | 1.64 ± 0.099
SMVFLASLY | inactive
RINSRHLLNVLAVRKTIQGS | inactive
FACFAVIILHVIMYVRMSSV | inactive
IRNIRFVFLILIDWSSRNSV | inactive
VFFFMNQSRRDRIE | 1.72 ± 0.11
PNNSLETTYFRVTWSFE | inactive
SCKVTKHGYVKEDFIGLCSY | inactive
NVNMYIDFVLIDMNWQNCTQ | 3.05 ± 0.062
GFYSLISQQQFVLNFNGYKM | 2.34 ± 0.086
IALKGRAFAHEGCLRGRRGG | inactive
CVGVCKNLNRWFH | inactive
LDAWRWMSLTADYGKSLVTR | inactive
